Legend:
[1] = target: prokineticin receptor(s) of guinea pig ileal smooth muscle (ileal membrane preparation / ileum longitudinal muscle) (guinea pig); experiment: cell-based or functional assay
[2] = target: prokineticin receptor(s) of guinea pig ileal smooth muscle (ileal membrane preparation / ileum longitudinal muscle) (guinea pig); experiment: competition radioligand binding on guinea pig ileal membranes, filtration; unlabeled prokineticin 2 varied against 125I-prokineticin 1 (20 pM)
[3] = target: prokineticin receptor(s) of guinea pig ileal smooth muscle (ileal membrane preparation / ileum longitudinal muscle) (guinea pig); experiment: displacement of 125I-prokineticin 1 (20 pM) from guinea pig ileal membranes by unlabeled prokineticin 2, low-affinity site
[4] = target: prokineticin receptor(s) of guinea pig ileal smooth muscle (ileal membrane preparation / ileum longitudinal muscle) (guinea pig); experiment: displacement of 125I-prokineticin 1 (20 pM) from guinea pig ileal membranes by unlabeled prokineticin 2, high-affinity site
[5] = target: prokineticin receptor expressed endogenously on M2A7 melanoma cells (ATCC CRL-2500); experiment: cell-based or functional assay
[6] = target: prokineticin receptor(s) of guinea pig ileal smooth muscle (ileal membrane preparation / ileum longitudinal muscle) (guinea pig); experiment: saturation binding of 125I-prokineticin 1 to guinea pig ileal membranes, high-affinity site, n=3
[7] = target: prokineticin receptor(s) of guinea pig ileal smooth muscle (ileal membrane preparation / ileum longitudinal muscle) (guinea pig); experiment: displacement of 125I-prokineticin 1 (20 pM) from guinea pig ileal membranes by unlabeled prokineticin 1, two-site model, high-affinity site
[8] = target: prokineticin receptor(s) of guinea pig ileal smooth muscle (ileal membrane preparation / ileum longitudinal muscle) (guinea pig); experiment: competition radioligand binding on guinea pig ileal membranes, filtration; unlabeled prokineticin 1 varied against 125I-prokineticin 1 (20 pM)
[9] = target: prokineticin receptor expressed endogenously on M2A7 melanoma cells (ATCC CRL-2500); experiment: binding of iodinated prokineticin 1 to M2A7 melanoma cells
[10] = target: prokineticin receptor(s) of guinea pig ileal smooth muscle (ileal membrane preparation / ileum longitudinal muscle) (guinea pig); experiment: saturation binding of 125I-prokineticin 1 to guinea pig ileal membranes, Scatchard analysis, two-site model, high-affinity site, n=3
[11] = target: prokineticin receptor(s) of guinea pig ileal smooth muscle (ileal membrane preparation / ileum longitudinal muscle) (guinea pig); experiment: displacement of 125I-prokineticin 1 (20 pM) from guinea pig ileal membranes by unlabeled prokineticin 1, two-site model, low-affinity site
[12] = target: prokineticin receptor(s) of guinea pig ileal smooth muscle (ileal membrane preparation / ileum longitudinal muscle) (guinea pig); experiment: saturation binding of 125I-prokineticin 1 to guinea pig ileal membranes, low-affinity site, n=3
[13] = target: prokineticin receptor(s) of guinea pig ileal smooth muscle (ileal membrane preparation / ileum longitudinal muscle) (guinea pig); experiment: saturation binding of 125I-prokineticin 1 to guinea pig ileal membranes, Scatchard analysis, two-site model, low-affinity site, n=3

B1: chimeric prokineticin 12 (exons 1 and 2 of prokineticin 1, exon 3 of prokineticin 2) (ligand)
chain: AVITGACERDVQCGAGTCCAISLWLRGLRMCTPLGREGEECHPGSHKVPFFGRRMHHTCPCLPGLACLRTSFNRFICLAQK
[1]
  time constant to midway contraction of ileal strips: 40 min

B2: chimeric prokineticin 21 (exons 1 and 2 of prokineticin 2, exon 3 of prokineticin 1) (ligand)
chain: AVITGACDKDSQCGGGMCCAVSIWVKSIRICTPMGKLGDSCHPLTRKVPFFRKRKHHTCPCLPNLLCSRFPDGRYRCSMDLKNINF
[1]
  EC50 of ileal contraction relative to prokineticin 1 or prokineticin 2: 8 fold
  time constant to midway contraction of ileal strips: 40 min

B3: recombinant refolded human prokineticin 2 with C-terminal 6xHis-tag (ligand)
chain: AVITGACDKDSQCGGGMCCAVSIWVKSIRICTPMGKLGDSCHPLTRKVPFFGRRMHHTCPCLPGLACLRTSFNRFICLAQKHHHHHH
[2]
  IC50 (read off the curve): 4 nM
[3]
  Ki: 1.22 nM
[4]
  Ki: 0.0042 nM
[1]
  contraction of guinea-pig ileum longitudinal muscle, ED50: 0.9 nM
  time constant to midway contraction of ileal strips: 15 min
[5]
  calcium mobilization in M2A7 melanoma cells (FLIPR), EC50: 21 nM

B4: recombinant refolded human prokineticin 1 with C-terminal 6xHis-tag (ligand)
chain: AVITGACERDVQCGAGTCCAISLWLRGLRMCTPLGREGEECHPGSHKVPFFRKRKHHTCPCLPNLLCSRFPDGRYRCSMDLKNINFHHHHHH
modifications: 125I-iodinated by the iodogen method where used as the labeled ligand; plain where used as unlabeled competitor; five disulfide bonds
[6]
  Bmax (fmol/mg of protein): 7.8
[7]
  Ki: 0.008 nM
[8]
  IC50 (read off the curve): 5 nM
[9]
  receptor level (fmole/mg protein): 150
[10]
  Kd: 0.005 nM
[1]
  contraction of guinea-pig ileum longitudinal muscle, ED50: 0.46 nM
  time constant to midway contraction of ileal strips: 15 min
[5]
  calcium mobilization in M2A7 melanoma cells (FLIPR), EC50: 12 nM
[11]
  Ki: 1.5 nM
[12]
  Bmax (fmol/mg of protein): 26.4
[13]
  Kd: 0.227 nM
